In US20240043504A1 (published 2024):
Several values for one entry are separate records, joined by “and”; a condition that tells them apart may be missing. Identical values can stand only once.

Legend:
[1] = biological target: receptor binding domain (RBD) portion of the SARS-CoV-2 Spike protein (amino acids Arg319-Phe541) ex (SARS-CoV-2)
[2] = biological target: SARS-CoV-2 Spike Protein (RBD)(R319-F541).mFc (SARS-CoV-2); test: Luminex, supernatant
[3] = biological target: SARS-CoV-2 Spike Protein (RBD)(R319-F541).hFc (SARS-CoV-2); test: Luminex, supernatant

B1: mAb11010 (antibody, V domains shown)
VH: QVQLVESGGGVVQPGRSLRLSCAASGFTFSSYGMHWVRQAPGKGLEWVAVISYDGSYKYYADSVKGRFTISRDNSKNTLYLQMNSLRAEDTAVYYCAIDGGTVTTIFDYWGQGTLVTVSS
VL: not shown
[1]
  IC50: 0.147 nM

B2: mAb10989 (antibody, V domains shown)
VH: QVQLVQSGAEVKKPGASVKVSCKASGYIFTGYYMHWVRQAPGQGLEWMGWINPNSGGANYAQKFQGRVTLTRDTSITTVYMELSRLRFDDTAVYYCARGSRYDWNQNNWFDPWGQGTLVTVSS
VL: QSALTQPASVSGSPGQSITISCTGTSSDVGTYNYVSWYQQHPGKAPKLMIFDVSNRPSGVSDRFSGSKSGNTASLTISGLQAEDEADYYCSSFTTSSTVVFGGGTKLTVLG
[2]
  MFI: 19600 MFI
[3]
  MFI: 22400 MFI

B3: mAb10982 (antibody, V domains shown)
VH: EVQLVESGGGLVQPGGSLRLSCAASGLTVSSNYMSWVRQAPGKGLEWVSVIYSGGTTYYADSVKGRFTISRHNSKNTLSLQMNSLRAEDTAVYYCARGEGANYYGMDVWGQGTTVTVSS
VL: QSVLTQPPSVSGAPGQRVTISCTGSSSNIGTGYDVHWYQQLPGTAPKLLIYGNSNRPSGVPDRFSGSKSGTSASLAITGLQAEDEADYYCQSYDSSLSGYVVFGGGTKLTVLG
[1]
  IC50: 0.116 nM

B4: mAb10985 (antibody, V domains shown)
VH: EVQLVESGGGLVQPGRSLRLSCAASGFTFDDYAMHWVRQAPGKGLEWVSGISWNRGSIGYADSVKGRFTISRDNAKNSLYLQMSSLRAEDTALYYCAKDGERWDSVVVPSARNGMDVWGQGTTVTVSS
VL: QSVLTQPPSVSGAPGQRVTISCTGSSSNIGAGYDVHWYQQLPGTAPKLLIYGNSNRPSGVPDRFSGSKSGTSASLAITGLQAEDEADYYCQSYDSSLSGSYVFGTGTKVTVLG
[1]
  IC50: 0.0696 nM and 0.0411 nM

B5: mAb10986 (antibody, V domains shown)
VH: EVQLVESGGGLVQPGGSLRLSCAASEFTVSSNYMSWVRQAPGKGLEWVSVIYSGGSTFYADSVKGRFTISRDNSKNTLYLQMNSLRAEDTAVYYCARALPYGDLHFDYWGQGTLVTVSS
VL: QSVLTQPPSVSGAPGQRVTISCTGSSSNIGTGYDVHWYQQLPGTAPKLLIYGNTNRPSGVPDRFSGSKSGTSASLAITGLQAEDEADYYCQSYDSSLSDSYVFGTGTKVTVLG
[1]
  IC50: 0.0754 nM

B6: mAb11006 (antibody, V domains shown)
VH: EVQLVESGGGLVQPGGSLRLSCAASGFIVSRNYMSWVRQAPGKGLEWVSVIYSGGSTFYADSVKGRFTISRHNSKNTLYLQMNSLKAEDTAVYYCARELRGYFDYWGQGTLVTVSS
VL: DIQLTQSPSFLSASVGDRVTITCWASQGISSYLAWYQQKPGKAPKLLIYAASTLQSGVPSRFSGSGSGTEFTLTISSLQPEDFATYYCQLLNSYPYTFGQGTKLEIKR
[1]
  IC50: 0.22 nM

B7: mAb11008 (antibody, V domains shown)
VH: EVQLVESGGGLVQPGGSLRLSCAASGFTVSSNYMTWVRQAPGKGLEWVSVIYSGGSTFYADSVKGRFTISRHNSENTLYLQMNSLRAEDTAVYYCARDLAAAGTDYWGQGALVTVSS
VL: DIQLTQSPSFLSASVGDRVTITCWASQGISSYLAWYQQKPGKAPKLLIYAASTLQSGVPSRFSGSGSGTEFTLTISSLQPDDFATYYCQHLNSYLYTFGQGTKLEIKR
[1]
  IC50: 1.49 nM

B8: mAb10932 (antibody, V domains shown)
VH: EVQLVESGGGLVQSGGSLRLSCAASGLTVSSNYMSWVRQAPGKGLEWVSVIYSGGSTFYSDSVKGRFTISRHNSKNTLYLQMNSLRAEDTAVYYCARARGDAFDIWGQGTMVTVSS
VL: not shown
[2]
  MFI: 30600 MFI
[3]
  MFI: 30600 MFI

B9: mAb10984 (antibody, V domains shown)
VH: EVQLVESGGGLVQPGGSLRLSCAASGLTVNRNYMSWVRQAPGKGLEWVSLIYSGGSTYYADSVKGRFTISRDNSKNTLYLQMNSLRLEDTAVYYCARGELGIPYGMDVWGQGTTVTVSS
VL: QSVLTQPPSVSAAPGQKVTISCSGSSSNIGNNYVSWYQQLPGTAPKLLIYDNNKRPSGIPDRFSGSKSGTSATLGITGLQTGDEADYYCGTWDSSLSAGVFGGGTKLTVLG
[1]
  IC50: 0.0775 nM

B10: mAb10966 (antibody, V domains shown)
VH: EVQLVESGGGLVQPGGSLRLSCAASGLTVSSNYMSWVRQAPGKGLEWVSVIYSGGSTFYADSVKGRFTISRDNSKNTLYLQMNSLRPEDTAVYYCAREGRIAATGYGMDVWGQGTTVTVSS
VL: not shown
[1]
  IC50: 0.16 nM

B11: mAb10966 (antibody, V domains shown)
VH: EVQLVESGGGLVQPGGSLRLSCAASGLTVSSNYMSWVRQAPGKGLEWVSVIYSGGSTFYADSVKGRFTISRDNSKNTLYLQMNSLRPEDTAVYYCAREGRIAATGYGMDVWGQGTTVTVSS
VL: not shown
[2]
  MFI: 30400 MFI
[3]
  MFI: 30800 MFI

B12: mAb10964 (antibody, V domains shown)
VH: QVQLQESGPGLVKPSETLSLTCTVSGGSINNYYWIWIRQPPGKGLEWIGYIYHSGSTNYNPSLKSRVTISVDTSKNQFSLKVSSVTAADTAVYYCANMVRGVYEDDYWGQGTLVTVSS
VL: DIQMTQSPSSLSASVGDRVTITCRASQSISNYLNWYQQKPGKAPKLLIFAASSLRSGVPSRFSGSGSGTDFTLTISSLHPEDFATYYCQQNYNTPLTFGPGTKVDIKR
[1]
  IC50: 0.0683 nM and 0.0625 nM

B13: mAb10964 (antibody, V domains shown)
VH: QVQLQESGPGLVKPSETLSLTCTVSGGSINNYYWIWIRQPPGKGLEWIGYIYHSGSTNYNPSLKSRVTISVDTSKNQFSLKVSSVTAADTAVYYCANMVRGVYEDDYWGQGTLVTVSS
VL: DIQMTQSPSSLSASVGDRVTITCRASQSISNYLNWYQQKPGKAPKLLIFAASSLRSGVPSRFSGSGSGTDFTLTISSLHPEDFATYYCQQNYNTPLTFGPGTKVDIKR
[2]
  MFI: 32400 MFI
[3]
  MFI: 33100 MFI

B14: mAb10967 (antibody, V domains shown)
VH: EVQLVESGGGLVQPGGSLRLSCAASGFTVSSNYMSWVRQAPGKGLEWVSVIYPGGSTFYADSVKGRFTISRDNSKNTLYLQMNSLRAEDTAVYYCARDQRDFAWGQGTLVTVSS
VL: DIQMTQSPSSLSASVGDRVTITCQASQDISNYLNWYQQKPGKAPKLLIYDASNLETGVPSRFSGSGSGTDFTFTISGLQPEDIATYYCQQYDNLPPTFGQGTRLEIKR
[1]
  IC50: 0.28 nM

B15: mAb10967 (antibody, V domains shown)
VH: EVQLVESGGGLVQPGGSLRLSCAASGFTVSSNYMSWVRQAPGKGLEWVSVIYPGGSTFYADSVKGRFTISRDNSKNTLYLQMNSLRAEDTAVYYCARDQRDFAWGQGTLVTVSS
VL: DIQMTQSPSSLSASVGDRVTITCQASQDISNYLNWYQQKPGKAPKLLIYDASNLETGVPSRFSGSGSGTDFTFTISGLQPEDIATYYCQQYDNLPPTFGQGTRLEIKR
[2]
  MFI: 29600 MFI
[3]
  MFI: 28700 MFI

B16: mAb10957 (antibody, V domains shown)
VH: EVQLVESGGGLVQPGGSLRLSCAASGVTVSSNYMSWVRQAPGKGLEWVSVIYSGGSTFYADSVKGRFTISRDNSKNTLFLQMNSLRIEDTAVYYCARDLGPYGMDVWGQGTTVTVSS
VL: DIQLTQSPSFLSASVGDRVTITCRASQGISSYLAWYQQKPGKAPKLLIYAASTLQSGVPSRFSGSGSGTQFILTISSLQPEDFATYYCQQLNSYPGFTFGPGTKVDIKR
[1]
  IC50: 0.169 nM

B17: mAb10971 (antibody, V domains shown)
VH: EVQLVESGGGLIQPGGSLRLSCAASGVTVSSNYMSWVRQAPGKGLEWVSVIYSGGSTFYSDSVKGRFSISRDNSKNTLYLQMNSLRAEDTAVYYCARDLYYYGMDVWGQGTTVTVSS
VL: DIQLTQSPSFLSASVGDRVTITCRASQGISTYLAWYQQKPGKAPKLLIYAASTLQSGVPSRFSGSGSGTEFTLTISSLQPEDFATYYCQQLDSYPGLTFGGGTKVEIKR
[2]
  MFI: 28700 MFI
[3]
  MFI: 30000 MFI

B18: mAb10971 (antibody, V domains shown)
VH: EVQLVESGGGLIQPGGSLRLSCAASGVTVSSNYMSWVRQAPGKGLEWVSVIYSGGSTFYSDSVKGRFSISRDNSKNTLYLQMNSLRAEDTAVYYCARDLYYYGMDVWGQGTTVTVSS
VL: DIQLTQSPSFLSASVGDRVTITCRASQGISTYLAWYQQKPGKAPKLLIYAASTLQSGVPSRFSGSGSGTEFTLTISSLQPEDFATYYCQQLDSYPGLTFGGGTKVEIKR
[1]
  IC50: 0.149 nM

B19: mAb10965 (antibody, V domains shown)
VH: EVQLVESGGGLIQPGGSLRLSCAASVFTVSYNYMSWVRQAPGKGLEWVSVIYSGGSTYYADSVKGRFTISRDNSKNTLYLQMNSLRAEDTAVYYCARALPGWGGSFEYFDYWGQGTLVTVSS
VL: not shown
[1]
  IC50: 0.213 nM

B20: mAb10965 (antibody, V domains shown)
VH: EVQLVESGGGLIQPGGSLRLSCAASVFTVSYNYMSWVRQAPGKGLEWVSVIYSGGSTYYADSVKGRFTISRDNSKNTLYLQMNSLRAEDTAVYYCARALPGWGGSFEYFDYWGQGTLVTVSS
VL: not shown
[2]
  MFI: 27100 MFI
[3]
  MFI: 29600 MFI

B21: mAb10998 (antibody, V domains shown)
VH: EVQLVESGGGLVHPGGSLRLSCAASGLTVSSNYMSWVRQAPGKGLEWVSVIYSGGSTYYADSVKGRFTISRHNSKNTLFLQMNSLRAEDTAVYYCARDRPITGTTLDVWGQGTTVTVSS
VL: DIQMTQSPSSLFASVGDRVTITCRASQSISSYLNWYQQKPGKAPKLLIYAASSLQSGVPSRFSGSGSGTDFTLTISSLQPEDFAFYYCQQTYSTPPITFGQGTRLEIKR
[1]
  IC50: 4.3 nM

B22: mAb10939 (antibody, V domains shown)
VH: EVQLVESGGGLVQPGGSLRLSCAASGLTVSSNYMNWVRQVPGKGLEWVSVIYSGGSKFYVDSVKGRFTISRHNSKNTLYLQMNSLRPEDTAVYYCTRDAQYYGMDVWGQGTTVTVSS
VL: DIQMTQSPSSLSASVGDRVTITCRASQSISTYLHWYQQKPGEAPKLLIYAASSLQSGVPSRFSGSGSGTDFTLTISSLQPEDFATYYCQQSYSTPPEIFGQGTKLEIKR
[2]
  MFI: 33900 MFI
[3]
  MFI: 32900 MFI

B23: mAb10969 (antibody, V domains shown)
VH: QVQLVESGGGVVQPGRSLRLSCAASGFTFSSYAMHWVRQAPGKGLEWVAVISYDGSNKYYADSVKGRFTISRDNSKNTLYLQMNSLRAEDTAVYYCARDGRTITMVRGVIDDAFDIWGQGTMVTVSS
VL: not shown
[1]
  IC50: 0.215 nM

B24: mAb10969 (antibody, V domains shown)
VH: QVQLVESGGGVVQPGRSLRLSCAASGFTFSSYAMHWVRQAPGKGLEWVAVISYDGSNKYYADSVKGRFTISRDNSKNTLYLQMNSLRAEDTAVYYCARDGRTITMVRGVIDDAFDIWGQGTMVTVSS
VL: not shown
[2]
  MFI: 31400 MFI
